What was measured:
complement C1q (human) [1] = molecular target: complement C1q (human) (UniProt P02745); assay: cell-based or functional assay
complement C1q (human) [2] = molecular target: complement C1q (human) (UniProt P02745); assay: flow cytometry, vWF on cholesterol crystals with C1q against crystals without C1q
complement C1q (human) [3] = molecular target: complement C1q (human) (UniProt P02745); assay: flow cytometry, vWF (10 µg/ml) bound to C1q immobilized on cholesterol crystals, mean of n=5

Sequence of UniProt P02745 (P02745 23-245, chain 1 of 3): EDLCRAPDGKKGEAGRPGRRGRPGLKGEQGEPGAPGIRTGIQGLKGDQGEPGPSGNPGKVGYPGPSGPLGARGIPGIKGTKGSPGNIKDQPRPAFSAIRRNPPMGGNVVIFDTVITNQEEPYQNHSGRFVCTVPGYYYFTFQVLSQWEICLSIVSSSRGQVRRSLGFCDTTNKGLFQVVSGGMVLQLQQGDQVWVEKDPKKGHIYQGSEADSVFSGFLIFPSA
Sequence of UniProt P02745 (chain, as listed by the source, chain 2 of 3): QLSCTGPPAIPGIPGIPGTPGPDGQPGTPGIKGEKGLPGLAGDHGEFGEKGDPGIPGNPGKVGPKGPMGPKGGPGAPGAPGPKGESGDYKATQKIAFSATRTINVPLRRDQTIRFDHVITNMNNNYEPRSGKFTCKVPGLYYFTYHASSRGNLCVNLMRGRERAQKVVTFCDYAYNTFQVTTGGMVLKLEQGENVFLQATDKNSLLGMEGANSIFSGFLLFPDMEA
Sequence of UniProt P02745 (chain, as listed by the source, chain 3 of 3): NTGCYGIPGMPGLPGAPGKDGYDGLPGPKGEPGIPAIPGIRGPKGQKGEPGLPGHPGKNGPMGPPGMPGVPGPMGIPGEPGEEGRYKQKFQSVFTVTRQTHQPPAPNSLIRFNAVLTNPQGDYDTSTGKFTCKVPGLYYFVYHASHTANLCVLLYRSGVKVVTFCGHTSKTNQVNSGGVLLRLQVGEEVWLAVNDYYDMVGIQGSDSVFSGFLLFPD

caspase-1 activity of HMDMs (% CD11c+ cells in FLICA+ gate) (complement C1q (human) [1]): 9.37%
early phagocytosis of pHrodo-dyed CC complexes by HMDMs (30 min, % CD11c+ cells in pHrodo Red Ester+ gate) (complement C1q (human) [1]): 54.5%
late phagocytosis of CC complexes by HMDMs (18 hr, % CD11c+ cells in SSC high gate) (complement C1q (human) [1]): 13.7%
fold gMFI against CC without C1q (complement C1q (human) [2]): 67 fold
gMFI (complement C1q (human) [3]): 134000 gMFI
Substance: recombinant von Willebrand factor (from UniProt P04275 764-2813) (ligand)
